Results published in doi:10.1101/2024.08.01.606155 (bioRxiv, 2024).

Molecular target: the molecule itself
Assay: SEC

B1: PMK3 (p38 MAPK of C. elegans), full length (enzyme, UniProt O44514 1-474, looked up)
chain: MASVPSSSSLPVSHVRRHEDVSTPSAPPTKRSNNQSQPPESYEPNTWLQQQREQEQQKKLAAENIKKQSIEATGNNEMVGEEEEDILSKPCGPHKRRFQFVMIRNITFAIPEGYDVEPNSIEYLGGGSFGNVIKTSAVCRDGLRRYVAIKKMREPFFDPHHARRIFRETKLLQLMRHDNIICALDIYTPDEENDFRDVYVVTEFAGRSLYQILKQQRDYGRRVLTDEHIKFIIYQIIRALKYIHSANIIHRDLKPGNLALTDDSDLMILDFGLARSLEKKDTSLTQYVQTRWYRSPEVIYWKIDSYTNLADMWSLGCIAAELLTGEPLFPGDEPNAQYQRITQLCGSPDEELLTKIENDNSSAIKAVIQSYTTHKRRNFRDVFSAHNPSEDFIDLLEKLLVLDPEKRITVEEAIQHPYLAEFSLPEDEPRADHIFDLDDSQARTRFEWRDAVWKEIMNYKRLSSSPLIPGEADR
  binding result: binds
